Data on two substances can be found in PMC3549490.

In test [1] the target is UNC-45 Q452pBpa (wild-type Q452B) (C. elegans). As to the kind of experiment: cross-linking.
Test [2] concerns the target UNC-45 (C. elegans), full-length recombinant protein (C. elegans). As to the kind of experiment: ITC.

Several values for one entry are separate records, joined by “and”; a condition that tells them apart may be missing. Identical values can stand only once.

As for “UNC-45 Q452pBpa (wild-type Q452B) (natural protein)”, in test [1], the stoichiometry N is 2 and > 5. On to “Hsp90 (DAF-21 in C. elegans), full-length recombinant protein (from UniProt Q18688 1-702) (natural protein)”, for which the Kd in test [2] came out at 31 µM.
